Measurements taken from patent publication US7910111.

Experiments:
[1] = biological target: Endogenous NSF of human aortic endothelial cells (HAEC) (human) (UniProt P46459); assay: cell-based or functional assay
[2] = biological target: Recombinant RGS-(His)6-NSF (N-ethylmaleimide sensitive factor), wild-type (UniProt P18708); assay: cell-based or functional assay
Recombinant RGS-(His)6-NSF (N-ethylmaleimide sensitive factor), wild-type, sequence (P18708 other isoform, or with tags, fused parts or gaps limits assumed): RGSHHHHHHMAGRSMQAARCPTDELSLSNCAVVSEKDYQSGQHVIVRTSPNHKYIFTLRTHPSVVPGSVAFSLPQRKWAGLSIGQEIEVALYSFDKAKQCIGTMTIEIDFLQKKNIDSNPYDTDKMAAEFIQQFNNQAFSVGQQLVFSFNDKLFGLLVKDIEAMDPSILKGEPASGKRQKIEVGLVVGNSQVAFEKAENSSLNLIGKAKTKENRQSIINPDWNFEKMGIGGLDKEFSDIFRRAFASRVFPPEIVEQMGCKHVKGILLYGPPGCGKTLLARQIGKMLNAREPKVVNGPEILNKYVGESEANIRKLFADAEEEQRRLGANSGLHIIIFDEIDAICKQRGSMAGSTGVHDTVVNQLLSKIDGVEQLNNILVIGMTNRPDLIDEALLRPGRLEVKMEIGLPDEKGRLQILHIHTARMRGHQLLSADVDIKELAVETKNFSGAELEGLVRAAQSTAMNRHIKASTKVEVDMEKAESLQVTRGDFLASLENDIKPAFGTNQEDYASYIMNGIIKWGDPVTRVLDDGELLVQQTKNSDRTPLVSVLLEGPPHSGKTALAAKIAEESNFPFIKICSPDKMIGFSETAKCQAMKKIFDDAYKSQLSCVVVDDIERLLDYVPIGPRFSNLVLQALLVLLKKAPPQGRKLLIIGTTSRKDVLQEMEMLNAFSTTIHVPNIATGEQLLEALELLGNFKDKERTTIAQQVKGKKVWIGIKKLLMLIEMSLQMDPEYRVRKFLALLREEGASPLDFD

TAT-NSF81 (peptide)
IC50% of endothelial exocytosis (vWF release) [1]: 1 to 10 µM
IC50% of NSF ATPase activity [2]: 1 to 10 µM
